The values that follow come from PMC5183740.

This test has as its target SA-M2e (streptavidin core fused to three consecutive copies of M2e of A/PARIS/2590/2009 (H1N1)) (Streptomyces avidinii | influenza A virus A/PARIS/2590/2009 (H1N1)). In words: SDS-PAGE of unheated samples.

For the substance “SA-M2e (streptavidin core fused to three consecutive copies of M2e of A/PARIS/2590/2009 (H1N1))”, the stoichiometry N (in general, the number of molecules, sites or subunits per partner or assembly) stood at 4.
